Test results as given in patent publication US7662384B2, “Use of anti-α5β1 antibodies to inhibit cancer cell proliferation” (Facet Biotech Corporation, priority 2004, dated 2010).

Legend:
NW231 cells = experiment: NW231 orthotopic xenograft in SCID mice; assay type: in vivo; settings: 10 mg/kg intraperitoneally, 3 times/week for 3 weeks
Protocol: (§1) NW231 and LOX cells were grown as orthotopic xenografts in SCID mice and challenged with the anti-α5β1 antibodies M200 and IIA1 by intraperitoneal injection.
(§2) Immune compromised mice CB-17 SCID (strain C.B-Igh1/IcrTac-Prkdc) were obtained from Taconic Farms (Germantown, N.Y.). Studies were initiated using female mice between the ages of 6-10 weeks (˜20 grams in weight). Animals were pre-dosed with M200, IIA1 or control IgG intraperitoneally at a dose of 10 mg/kg 1 hour prior to NW231 inoculation (1×10^7 cells in IMDM) into the mammary fat pad. Dosing continued for 3 weeks at a frequency of 3 times/week at 10 mg/kg. Tumor volume was measured twice weekly by caliper and calculated by π/6×length×width×height. Clinical and mortality observations were performed daily according to IACUC regulations.

LOX cells = experiment: LOX orthotopic xenograft in SCID mice; assay type: in vivo; settings: 10 mg/kg intraperitoneally, 3 times/week for 3 weeks
Protocol: as §1, §2

[1] = molecular target: α5β1 integrin binding to fibronectin (Homo sapiens, UniProt P05556+P08648); settings: cited from earlier work
α5β1 integrin binding to fibronectin, sequence (P08648 42-894 limits assumed): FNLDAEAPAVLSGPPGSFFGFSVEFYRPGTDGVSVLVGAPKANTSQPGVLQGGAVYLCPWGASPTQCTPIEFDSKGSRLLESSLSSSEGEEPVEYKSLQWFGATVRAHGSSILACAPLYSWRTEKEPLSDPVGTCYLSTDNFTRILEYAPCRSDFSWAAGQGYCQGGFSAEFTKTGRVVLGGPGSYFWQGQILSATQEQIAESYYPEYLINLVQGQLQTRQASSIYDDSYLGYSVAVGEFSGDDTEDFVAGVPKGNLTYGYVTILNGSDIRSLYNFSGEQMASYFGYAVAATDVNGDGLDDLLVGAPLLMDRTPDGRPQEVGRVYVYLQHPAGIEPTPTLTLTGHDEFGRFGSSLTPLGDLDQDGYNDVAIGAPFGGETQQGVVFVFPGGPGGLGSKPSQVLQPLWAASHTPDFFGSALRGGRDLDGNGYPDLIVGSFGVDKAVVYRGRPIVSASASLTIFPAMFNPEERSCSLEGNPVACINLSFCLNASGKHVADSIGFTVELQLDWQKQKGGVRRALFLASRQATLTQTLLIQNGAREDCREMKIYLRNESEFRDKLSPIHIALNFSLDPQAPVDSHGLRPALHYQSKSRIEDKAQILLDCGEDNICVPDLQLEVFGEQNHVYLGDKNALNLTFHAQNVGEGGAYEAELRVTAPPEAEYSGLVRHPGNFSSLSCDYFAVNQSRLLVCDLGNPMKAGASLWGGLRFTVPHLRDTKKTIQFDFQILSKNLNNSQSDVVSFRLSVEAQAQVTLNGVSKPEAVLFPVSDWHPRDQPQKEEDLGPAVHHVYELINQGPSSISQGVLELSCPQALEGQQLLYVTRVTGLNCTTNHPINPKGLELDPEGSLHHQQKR
α5β1 integrin binding to fibronectin, sequence (P08648 895-1049 limits assumed): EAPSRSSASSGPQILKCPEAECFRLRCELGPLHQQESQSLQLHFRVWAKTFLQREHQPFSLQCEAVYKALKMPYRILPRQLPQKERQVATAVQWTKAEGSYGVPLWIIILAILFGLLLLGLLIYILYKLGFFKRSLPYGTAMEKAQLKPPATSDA
α5β1 integrin binding to fibronectin, sequence (P05556 21-798): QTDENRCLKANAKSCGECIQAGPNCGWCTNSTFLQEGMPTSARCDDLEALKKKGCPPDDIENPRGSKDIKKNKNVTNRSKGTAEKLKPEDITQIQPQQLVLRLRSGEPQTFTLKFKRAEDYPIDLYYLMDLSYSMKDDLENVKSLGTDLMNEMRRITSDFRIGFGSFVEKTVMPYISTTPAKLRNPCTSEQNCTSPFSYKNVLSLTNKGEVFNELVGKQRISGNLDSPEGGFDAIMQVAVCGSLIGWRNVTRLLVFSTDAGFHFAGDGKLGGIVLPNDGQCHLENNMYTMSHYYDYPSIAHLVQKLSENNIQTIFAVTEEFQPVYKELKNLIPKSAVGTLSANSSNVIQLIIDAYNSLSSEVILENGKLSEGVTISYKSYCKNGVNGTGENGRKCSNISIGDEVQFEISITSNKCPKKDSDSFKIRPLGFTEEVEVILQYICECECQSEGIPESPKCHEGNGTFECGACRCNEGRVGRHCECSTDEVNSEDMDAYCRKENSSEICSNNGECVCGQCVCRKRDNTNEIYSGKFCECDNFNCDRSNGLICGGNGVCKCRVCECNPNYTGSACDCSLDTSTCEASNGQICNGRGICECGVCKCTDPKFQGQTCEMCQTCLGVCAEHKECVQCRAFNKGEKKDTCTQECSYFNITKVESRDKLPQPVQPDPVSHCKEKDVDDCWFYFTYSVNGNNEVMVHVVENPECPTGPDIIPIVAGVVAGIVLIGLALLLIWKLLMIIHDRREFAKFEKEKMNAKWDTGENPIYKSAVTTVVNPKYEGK

mouse α5β1 integrin = mouse α5β1 integrin (Mus musculus, UniProt P09055+P11688); experiment: species cross-reactivity of anti-α5β1 antibody; assay type: binding
mouse α5β1 integrin, sequence (P11688 45-1053): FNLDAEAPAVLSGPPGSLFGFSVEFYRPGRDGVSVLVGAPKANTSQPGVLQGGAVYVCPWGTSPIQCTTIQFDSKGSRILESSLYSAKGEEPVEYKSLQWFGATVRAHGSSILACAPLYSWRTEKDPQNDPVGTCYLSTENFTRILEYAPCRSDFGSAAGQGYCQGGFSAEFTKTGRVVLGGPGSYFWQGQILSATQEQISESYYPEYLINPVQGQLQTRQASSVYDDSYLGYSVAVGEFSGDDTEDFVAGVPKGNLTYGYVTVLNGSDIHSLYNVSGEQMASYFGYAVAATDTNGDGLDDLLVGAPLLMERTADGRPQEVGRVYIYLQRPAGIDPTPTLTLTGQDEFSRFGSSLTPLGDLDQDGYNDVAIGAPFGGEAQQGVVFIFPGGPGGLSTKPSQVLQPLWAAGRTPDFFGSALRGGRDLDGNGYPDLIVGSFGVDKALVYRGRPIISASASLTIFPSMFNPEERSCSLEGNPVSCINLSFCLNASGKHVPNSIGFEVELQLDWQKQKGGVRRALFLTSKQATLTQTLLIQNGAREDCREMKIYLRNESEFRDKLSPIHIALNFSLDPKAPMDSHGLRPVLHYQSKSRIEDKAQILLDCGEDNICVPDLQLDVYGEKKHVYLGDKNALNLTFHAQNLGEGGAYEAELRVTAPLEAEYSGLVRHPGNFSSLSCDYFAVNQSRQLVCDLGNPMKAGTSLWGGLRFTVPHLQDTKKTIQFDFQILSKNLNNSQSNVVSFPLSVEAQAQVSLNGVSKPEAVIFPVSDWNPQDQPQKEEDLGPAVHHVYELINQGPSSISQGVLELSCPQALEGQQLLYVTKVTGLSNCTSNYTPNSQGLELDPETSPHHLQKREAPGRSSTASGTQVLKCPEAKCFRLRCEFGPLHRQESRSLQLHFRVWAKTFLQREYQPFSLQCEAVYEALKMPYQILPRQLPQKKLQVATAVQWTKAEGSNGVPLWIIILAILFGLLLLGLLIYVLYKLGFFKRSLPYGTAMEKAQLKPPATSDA
mouse α5β1 integrin, sequence (P09055 21-798): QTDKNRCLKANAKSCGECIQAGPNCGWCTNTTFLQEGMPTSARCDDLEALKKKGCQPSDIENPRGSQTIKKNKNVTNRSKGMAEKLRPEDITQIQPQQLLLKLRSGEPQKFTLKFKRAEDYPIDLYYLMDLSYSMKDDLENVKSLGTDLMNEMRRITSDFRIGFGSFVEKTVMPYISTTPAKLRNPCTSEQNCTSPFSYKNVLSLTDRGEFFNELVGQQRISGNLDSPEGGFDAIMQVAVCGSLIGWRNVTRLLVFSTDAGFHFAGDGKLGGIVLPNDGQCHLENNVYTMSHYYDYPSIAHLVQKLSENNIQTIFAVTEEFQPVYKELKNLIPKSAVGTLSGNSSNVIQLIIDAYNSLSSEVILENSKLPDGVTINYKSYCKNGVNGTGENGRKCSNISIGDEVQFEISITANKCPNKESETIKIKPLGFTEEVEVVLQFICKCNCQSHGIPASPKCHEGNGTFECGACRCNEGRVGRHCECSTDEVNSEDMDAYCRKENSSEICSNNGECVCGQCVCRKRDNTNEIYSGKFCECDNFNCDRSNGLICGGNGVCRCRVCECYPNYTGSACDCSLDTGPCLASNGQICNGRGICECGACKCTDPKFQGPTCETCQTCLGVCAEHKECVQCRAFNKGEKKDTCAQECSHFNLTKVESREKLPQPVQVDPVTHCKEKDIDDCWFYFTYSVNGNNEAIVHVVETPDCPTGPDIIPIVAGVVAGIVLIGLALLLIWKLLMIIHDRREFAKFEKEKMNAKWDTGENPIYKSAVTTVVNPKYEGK

VX2 cancer cells = experiment: SCID mouse VX2 xenograft model; assay type: in vivo; settings: SCID mice; 10 mg/kg intraperitoneally, 3 times/week for 3 weeks
Protocol: as §2, with “M200, IIA1,” for “M200, IIA1”, “mg/kg one” for “mg/kg 1”, “to VX2” for “to NW231”, “in Iscove's Modified Dulbecco's Medium)” for “in IMDM)”, “Dosing was” for “Dosing”

angiogenesis = settings: monkey eye model; cited from earlier work
VX2 carcinoma = experiment: M200 VX2 rabbit tumor efficacy study; assay type: in vivo
Protocol: Starting on Day 5, tumor dimensions (Length, Width and Height) were measured in millimeters via electronic vernier calipers connected to a laptop computer at a minimum frequency of twice weekly. For consistency, the same trained technician performed the tumor measurements throughout the course of the study. Tumor volume was calculated using the formula: Length×Width×Height×0.52. Upon animal termination, tumors were carefully excised, trimmed and weighed. In addition, animals were weighed a minimum of once weekly. Representative samples of each tumor were preserved in sample cassette in formalin or OCT and flash frozen in liquid nitrogen.
Rabbits (30 total) were inoculated, either subcutaneously or intramuscularly with either a VX2 cell suspension (100 μl) or pieces of tumor (˜5-10 mm^3). The test group of 20 was treated with M200 at 10 mg/kg intravenously, twice weekly for 3 weeks. The control group of 10 animals was treated with a control IgG delivered by the same method as the M200. Tumor measurements, termination, weighing, tumor preservation and study duration were carried out according to the methods described above for the Pilot Study. In addition, one milliliter of blood was taken from an ear vessel on a weekly basis for serum analysis.

[2] = Phase I dose-escalation study: pharmacokinetics (serum ELISA)
Protocol: The serum for measuring M200 concentrations was obtained immediately before and after the first dose, and at 4, 24, 48, and 168 hours after completion of the first dose. Serum samples for measuring M200 concentrations were also taken immediately before, at the end, and 4 hours after the completion of each subsequent infusion. These samples were split and aliquots assayed before the next dose and again at the end of the study: end of 1st dose, 168 hours after 1st dose, immediately pre-dose (trough) and immediately post-dose (peak) for the 2nd, 3rd, 4th and 5th doses. The serum levels of M200 were measured by ELISA.
The plasma concentration-time data of M200 from each patient was subjected to a PK analysis. The following parameters were included in the calculations: peak (Cmax) and trough (Cmin) levels, terminal phase half-life (T1/2 β), area under the plasma-concentration time curve (AUC), elimination clearance (CL), and volume of distribution (V). Summary parameters were computed across patients from each treatment group. Changes in the PK parameters as a function of dose and time were also evaluated.

Molecule	NW231 xenograft tumor growth (NW231 cells)	LOX xenograft tumor growth (LOX cells)	inhibition of α5β1 integrin binding to fibronectin [1]	recognition of mouse α5β1 integrin (mouse α5β1 integrin)	VX2 xenograft tumor growth versus control IgG (VX2 cancer cells)	in vivo anti-angiogenic efficacy (angiogenesis)	circulating level of M200 at which tumor growth was inhibited (VX2 carcinoma; rabbit VX2 model) [µg/mL]	VX2 tumor growth (VX2 carcinoma; rabbit, 10 mg/kg intravenously, twice weekly for 3 weeks)	immunogenicity (VX2 carcinoma; rabbits, immune response as early as two weeks, eventually all animals seroconvert)	mean trough level ([2]; 10 mg/kg, two weeks after the 1st dose) [µg/mL]	pharmacokinetics, linearity ([2]; slower clearance at the higher concentrations)
IIA1: parent mouse IgG1 class anti-α5β1 antibody shown to inhibit α5β1 integrin binding to fibronectin (antibody, V domains shown, mus muscalus) VH: MAVLGLLLCLVTFPSCVLSQVQLKESGPGLVAPSQSLSITCTISGFSLTDYGVHWVRQPPGKGLEWLVVIWSDGSSTYNSALKSRMTIRKDNSKSQVFLIMNSLQTDDSAMYYCARHGTYYGMTTTGDALDYWGQGTSVTVSS VL: MDFQVQIFSFLLISASVIMSRGQIVLTQSPAIMSASLGERVTMTCTASSSVSSNYLHWYQQKPGSAPNLWIYSTSNLASGVPARFSGSGSGTSYSLTISSMEAEDAATYYCHQYLRSPPTFGGGTKLEIK	reproducibly inhibit	reproducibly inhibit	inhibit α5β1 integrin binding to fibronectin	does not recognize	did not correlate with a decreased rate of VX2 tumor growth	–	–	–	–	–	–
M200: chimeric IgG4 anti-α5β1 antibody derived from IIA1; generic name volociximab (antibody, V domains shown, chimeric antibody, chimeric IgG4 anti-α5β1 antibody derived from IIA1; generic name volociximab) VH: MAVLGLLLCLVTFPSCVLSQVQLKESGPGLVAPSQSLSITCTISGFSLTDYGVHWVRQPPGKGLEWLVVIWSDGSSTYNSALKSRMTIRKDNSKSQVFLIMNSLQTDDSAMYYCARHGTYYGMTTTGDALDYWGQGTSVTVSS VL: MDFQVQIFSFLLISASVIMSRGQIVLTQSPAIMSASLGERVTMTCTASSSVSSNYLHWYQQKPGSAPNLWIYSTSNLASGVPARFSGSGSGTSYSLTISSMEAEDAATYYCHQYLRSPPTFGGGTKLEIKDMSVDMSV	not found to reproducibly inhibit tumor growth	not found to reproducibly inhibit tumor growth	–	does not cross react	did not correlate with a decreased rate of VX2 tumor growth	in vivo anti-angiogenic efficacy	≥ 50	able to inhibit tumor growth	immunogenic in rabbits	82	non-linear pharmacokinetics
